Source: patent US9402900B2, “Methods of modulating adrenomedullin by administering an anti-adrenomedullin (ADM) antibody” (ADRENOMED AG, priority 2011, dated 2016)

How the values were obtained:
[1] = target: T1, Human ADM 1-52 bioactivity at human recombinant adrenomedullin receptor (CRLR+RAMP3) in CHO-K1 cells (Homo sapiens, UniProt P35318); experiment: Human recombinant Adrenomedullin receptor cAMP functional assay (Adrenomedullin Bioassay), human ADM as agonist; format: cell-based; details: in the presence of 5.63 nM Human ADM 1-52; antibody up to 100 μg/ml
T1 construct: comprises the amino acids 95 to 146 of pre-proADM; FAST-027C (receptor cell line); host or cells: CHO-K1 cells transfected with human CRLR+RAMP3
T1 sequence (P35318 95-146): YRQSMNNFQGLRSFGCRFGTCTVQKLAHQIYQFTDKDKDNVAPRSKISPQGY
Procedure: The effect of selected ADM-antibodies on ADM-bioactivity was tested in an human recombinant Adrenomedullin receptor cAMP functional assay (Adrenomedullin Bioassay).
Testing of Antibodies Targeting Human or Mouse Adrenomedullin in Human Recombinant Adrenomedullin Receptor cAMP Functional Assay (Adrenomedullin Bioassay)
Receptor: Adrenomedullin (CRLR+RAMP3)
Receptor Accession Number Cell line: CRLR: U17473; RAMP3: AJ001016
Dose response curves were performed in parallel with the reference agonists (hADM or mADM).
For antagonist testing, 6 μl of the reference agonist (human (5.63 nM) or mouse (0.67 nM) adrenomedullin) was mixed with 6 μl of the test samples at different antagonist dilutions; or with 6 μl buffer. After incubation for 60 min at room temperature, 12 μl of cells (2,500 cells/well) were added. The plates were incubated for 30 min at room temperature.
The anti-h-ADM antibodies (NT-H, MR-H, CT-H) were tested for antagonist activity in human recombinant adrenomedullin receptor (FAST-027C) cAMP functional assay in the presence of 5.63 nM Human ADM 1-52, at the following final antibody concentrations: 100 μg/ml, 20 μg/ml, 4 μg/ml, 0.8 μg/ml, 0.16 μg/ml.

[2] = target: T2, hADM (Homo sapiens, UniProt P35318); experiment: hADM sandwich luminescence immunoassay, dose/signal curve in presence of antibody; details: 100 μg/mL antibody
T2 construct: comprises the amino acids 95 to 146 of pre-proADM; purchased BACHEM AG, Switzerland
T2 sequence (P35318 95-146): T1 sequence (P35318 95-146)
Procedure: The assay was calibrated, using dilutions of hADM
Unbound tracer was removed by washing 5 times (each 1 ml) with washing solution (20 mM PBS, pH 7.4, 0.1% Triton X-100).
Tube-Bound Chemiluminescence was Measured by Using the LB 953

- Maximal inhibition of ADM bioactivity (ADM-Bioassay) (%) [1]: 38%
- Effect on the hADM immunoassay (dose/signal curve) [2]: did not affect
B1: NT-H: mouse monoclonal antibody raised against human ADM region 1-21 (SEQ ID: 15) (antibody, V domains shown)
VH: QVQLQQSGAELMKPGASVKISCKATGYTFSRYWIEWVKQRPGHGLEWIGEILPGSGSTNYNEKFKGKATITADTSSNTAYMQLSSLTSEDSAVYYCTEGYEYDGFDYWGQGTTLTVSS
VL: DVLLSQTPLSLPVSLGDQATISCRSSQSIVYSNGNTYLEWYLQKPGQSPKLLIYRVSNRFSGVPDRFSGSGSGTDFTLKISRVEAEDLGVYYCFQGSHIPYTFGGGTKLEIK
